Target: T1, mouse IGF-I receptor (mouse, UniProt Q60751 31-1373)
T1 construct: Expressed on transfected P3U1 cells; also called NP_034643
Test: Cell ELISA, 10 nM antibody, fixed P3U1 cells expressing the receptor
Protocol: After the lipofection, the P3U1 cells were cultured at least overnight and were added to a 96-well plate (coated with poly-D-lysine) at a concentration of 0.8×10⁵ cells/well and immobilized with 10% buffered formalin (Mildform® 10 NM, Wako), followed by blocking with phosphate buffer containing 3% BSA. The resulting plate was used for ELISA.
After washing with a washing liquid twice, anti-mouse-IgG antibody-HRP conjugate solutions (30 μL) adjusted to predetermined concentrations with 0.1% skimmed milk/3% BSA/PBS were added to respective wells and were subjected to reaction at room temperature for about 1 hour. After washing with a washing liquid twice, 50 μL of a substrate (TMB) was added to each well to start the reaction. After about 20 minutes, 50 μL of 0.5 M sulfuric acid was added to each well. The absorbances at 450 nm and 550 nm were measured, and the difference between absorbance values at 450 nm and 550 nm was calculated.

T1 sequence (Q60751 other isoform, or with tags, fused parts or gaps limits assumed): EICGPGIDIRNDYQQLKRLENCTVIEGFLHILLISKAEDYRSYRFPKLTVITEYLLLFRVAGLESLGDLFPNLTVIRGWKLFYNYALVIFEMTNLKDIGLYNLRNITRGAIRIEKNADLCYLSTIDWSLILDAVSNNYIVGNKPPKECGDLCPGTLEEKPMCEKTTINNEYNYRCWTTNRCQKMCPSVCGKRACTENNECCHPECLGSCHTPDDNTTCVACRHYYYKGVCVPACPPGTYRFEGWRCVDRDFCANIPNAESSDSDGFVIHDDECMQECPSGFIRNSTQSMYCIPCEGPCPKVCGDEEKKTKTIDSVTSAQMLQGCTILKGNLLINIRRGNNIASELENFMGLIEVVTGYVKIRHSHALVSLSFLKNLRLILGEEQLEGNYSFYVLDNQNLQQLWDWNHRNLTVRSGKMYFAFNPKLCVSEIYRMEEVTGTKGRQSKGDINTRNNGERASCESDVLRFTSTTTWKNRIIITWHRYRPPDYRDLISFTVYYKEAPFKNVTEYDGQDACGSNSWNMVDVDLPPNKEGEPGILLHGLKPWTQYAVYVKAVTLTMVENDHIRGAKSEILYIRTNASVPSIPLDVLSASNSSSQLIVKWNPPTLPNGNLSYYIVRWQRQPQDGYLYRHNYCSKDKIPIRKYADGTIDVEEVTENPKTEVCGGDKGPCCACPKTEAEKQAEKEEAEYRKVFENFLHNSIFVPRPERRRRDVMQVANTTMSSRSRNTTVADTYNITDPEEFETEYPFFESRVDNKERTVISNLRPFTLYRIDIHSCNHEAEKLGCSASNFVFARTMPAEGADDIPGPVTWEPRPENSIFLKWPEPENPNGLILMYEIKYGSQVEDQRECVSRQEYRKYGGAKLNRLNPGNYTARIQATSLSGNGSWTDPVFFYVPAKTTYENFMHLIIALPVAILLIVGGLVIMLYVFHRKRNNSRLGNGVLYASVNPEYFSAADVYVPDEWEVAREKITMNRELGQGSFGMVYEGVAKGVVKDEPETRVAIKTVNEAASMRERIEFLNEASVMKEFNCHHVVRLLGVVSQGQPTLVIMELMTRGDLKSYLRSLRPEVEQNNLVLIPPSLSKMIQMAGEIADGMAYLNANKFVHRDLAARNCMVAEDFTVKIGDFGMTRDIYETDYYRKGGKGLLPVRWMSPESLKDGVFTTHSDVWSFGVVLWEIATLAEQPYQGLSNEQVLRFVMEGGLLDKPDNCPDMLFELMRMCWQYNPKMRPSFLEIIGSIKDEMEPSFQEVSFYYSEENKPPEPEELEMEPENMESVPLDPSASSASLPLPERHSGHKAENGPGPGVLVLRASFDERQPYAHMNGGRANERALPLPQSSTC

B1: IGF11-16 (antibody, mouse IgG1, kappa, V domains shown)
VH: QIQLQQPGAELVKPGASVKLSCKAPGYTFTSYWMHWVKQRPGQGLEWIGETNPSNSVTNYNEKFKSKATLTVDKSSSTAYMQLSSLTSEDSAVYYCTIGRGRGFAYWGQGTLVTVSA
VL: DIQMNQSPSSLSASLGDTITITCRASQNINFWLSWCQQKPGNIPKLLIYKASNLHTGVPSRFSGSGSGTDFTLTISSLQPEDIATYYCLQGQSYPYTFGGGTKLEIKR
notes: no cleavage site is stated; also called IGF-I receptor agonist antibody; IGF11-16 antibody
For B1, the “Avidity (absorbance difference 450-550 nm, Mock cells = 1)” value was 0.9 fold of Mock cells.
